Source: the DeepSol protein solubility set

Assay: soluble on expression in E. coli; label from the status in PepcDB or PDB records

**Q.** With “MAHHHHHHMSRNGELCLKKVIISYCPSNGAPNTRQFLATHLPHFHAKYPSVSIDLRPRLWPEMAITGVYRDGSERSYNTKNLSPMGIFLRLNNLVSTANDYDQPFCASHLHFQRRSVQGTWNPWLWNYETERRRTEAPQWRRKLSEKEWDYYVGQYSAQMKQEEDEIQRRVADRTCVQEQSTREVQERWKRHVVPRMQTDLEFNLSHFKRQHARGQLQQRPVTMGEYRLFSVPDPRELGQDAVDTMRRRESHNMEVWWRKRKEQLKPP” as the sequence, how does the “soluble on expression in E. coli” value read?
**A.** not soluble

**Q.** With “MAHHHHHHMSSAVVKPSNGEMPKTKEQKEMKNEYQVETNKELQVNLNFHNNNIISNIFSNLSLFDYLTNIFTINKKTYMLKYCNKLNEDNFYISYFQKENDKFAQISPWHDIDLMNEDGTYNMVVEITKYNYIKLEIQLKENFNVIKQDTKKGKLRYYHNSIYWNYGALPRTYEYPKHIYTCQTGDNQDLFFTGDDDPLDVVDVGQNSLKMGQVVPVKVGSMQSHMTYM” as the sequence, how does the “soluble on expression in E. coli” value read?
**A.** not soluble

**Q.** Which “soluble on expression in E. coli” value does the source give for “MAHHHHHHMSSCQNTHAARLHSATSAYAGEPESWMWTPARENGDGWRSPGTGTATSATAEAALHFVWGRVLSVYAVMPLNQTWNVQGVVDAVLPPLPANGGTTAAPSPPAAPAMAPGFQLLVMAAALLSPPATATTAVAAAPSMASLHKLSLMSPADAEPVDVGELSGAFWLAALRRAWPLFQACGVSHEPMTQGSNTNITEEAASSLGGVAVGMAGSGVNLEDLRTIVLSLFLRFADDSAVASAMAAADGDGAKLCGSAIRWAEAMCSDAPATYAQ” here?
**A.** not soluble

**Q.** With “MAHHHHHHMSSELVLAQESAWDKFGSKLKDMPFLNNFFENPILGKLFGETELAAALREMKMYDQNFKLSELMYLFEFVISKHIVESYLIGDEETLRVHCGQSAFNSLNASINERKKKKVYLDTNVLIYKNHELKGAQRMEESSPWFIFTFHTQQINCLKNANDEIIEGNIDDIREVVYTIALSKHPEPEREGLLYPYIVREFAIY” as the sequence, how does the “soluble on expression in E. coli” value read?
**A.** not soluble

**Q.** With “MAHHHHHHMSSSDLIKEDDYVFISGRGLNKIVQIKKDVTVRLGRSGAALATTLIGIRYGGVCHLDHARKKFVESDEYPDLDITEVGDGEEVKDNRDLVDDNTNQQLSNDEVAAIRRDKGLDELLQALVEKSASYRTKTNFAQEKYLKKKQKKYGTLFKVERVTVDNLAELHVPTINPSDNTSEDARCLRLRADTVALILHHSDVHHNSRVILYEKTNGVLPASLLTRMSDEGRIFQILDKNAQPSPTTAVKVLKLPLVKERWKAVPRNRGFLEGLEEPDKDSARDTAEAAEKNAAGAAAGKGLQRQDICASSTQWVKGLEARQLLLESSADSLVICDDEAPQRAVADLLPFLAFGGHIVVYSPFLEDLTGIFLALRDDCVNLQISETWYRHHQVLPKRTHPTVNMSTAAGYLLTAIKVCRNPAAPRLTAAVTAPALSATTHAGHKRSATEELNGMASKKSATREASDEGNAN” as the sequence, how does the “soluble on expression in E. coli” value read?
**A.** not soluble

**Q.** Which “soluble on expression in E. coli” value does the source give for “MAHHHHHHMSSTVTGQAIPKLFPKAFHSWVGTGRIFNFLAPYEQNRVIAYLNSIYNTAPLFKWSLSIVPLYGIVSGYPPVEKIDFNSSAALCATGMVWFVYALLIQPQNSGSRSLALVNICLATVNGYNCYRSAQHKRRQAVNANRIE” here?
**A.** not soluble

**Q.** For “MAHHHHHHMSVPEWARSEHSIEEAKEYLRTGNSVDFFELVSSHILREHPLDVAAFALDLVERISKLGNTLSARDYHPKRVEDNKYLQEKNVCEFLNEWILALLKERPDTDEARMSFHKRYLKSLVDGGGCSQCTSVN”, which “soluble on expression in E. coli” value is on record?
**A.** not soluble

**Q.** Which “soluble on expression in E. coli” value does the source give for “MAHHHHHHMSVVISTSLGSLLINLRFVDCPKASFNFLALCASSYYDGCRFHRLVPETFVLTGDPTGTGKGGESVFVHHQDIKQRYFEDEGMGNALHDRRGVVSMAHKGNKPDTNASQFFILFKPCPSLDSKHTAFGVVDFGWNDGESERTLKRVEELEADGSYNVLDVEARILSTTVLYNPFAEGHIKLNV” here?
**A.** not soluble

**Q.** For “MAHHHHHHMSWRTRVVRCPLQEPHNPFDMGRVMQRFWSPFCKGVKGPDLHTYGFGETFSGMRTHDSDFTCQVNGQVGGAKLVEDFFITLLCGFDFEHVKVERHLTTSGAADPCQFQGTIVLAHTRPFLGWCPQPVTHSLEKCPSPSECDATKVSTNNINELGNTTATASRCLVQTGGNTEAPVPSLILNVPFTARLEGNVGRISHMILRSPAIGVIAAHQCCPAEVGSCLQNPEALQALVTLRRANVRPEMITDRTLVGITAKKAAWCSALGIL”, which “soluble on expression in E. coli” value is on record?
**A.** not soluble

**Q.** For “MAHHHHHHMTAPITGPMLLGAASVDVLRSMLTLDPFQCLVAQRLCEELSCQRFPKVTLLIFKSMPDPRLLQLRSSVGEEVTVTVSRLNDLRCKFTLGDKANYEHLYNMRTPAKPRTVCTFDIVLPTSRLTGLSRCIDHLIAAAERMVMPRITVEALCCTEQDERRKIVREEKDHWDFLFHGLRVGSFITVLRRLPSITAMHAPPIPHDYTFSAALSNPGFVLPSHYCGRLATVPTGAKGVSTPFIAIAEPAIPTGAKVSIRCQLIRGNQGQILGGGYYFGVCTPSFHWKHKDLNVHTGEVWALHDMDDSPWRLRHLRPDATFPVAAEPRCIIVSGDIIRLYIDRTARVMHAFRTPVNGDEIPLGLHL”, which “soluble on expression in E. coli” value is on record?
**A.** not soluble

**Q.** For “MAHHHHHHMTITLDSFNEQKVHNNQNKRKYNCRLNFKRFTKRRNNYNEDNRDSKINIKTALIKNEVISDDNDEFIDSNLMRTCHRFRLYKHSSNKIDIYYPYDKKKLDKYDYERDQTFCSLTDIEDVVNNGDDKSSKFFYYKNKSLNDYKSCFEKKNKKTKWFRLRKKKKKDHAMDESLKYLNESVCSNYKEANKNNKLDNSSKYSKNCVINTTVNGIRGFSAWIF”, which “soluble on expression in E. coli” value is on record?
**A.** not soluble

**Q.** For “MAHHHHHHMTKSYLNQDQQLRAQQVYTTHKHLKELSMATKEALTYHDKYLAAMEHVMSCLLNNSDALEDARKHLTQEAAVDIQPTFPTAGRLAAAYSNWRVSAELHMMRTELEFLKEVSTTGHEAVKKTKNAVHGLEKVAKKCAHVNSPEFEAKISSKSGKALEKLLHEQRETNTMMMSIENAIKKDMMSLATSWSAKLVTRGDALYTAFRSLGCRTVACFPTTDPTLSQGMPPPAAGYVLSQPSSASTSVPYSGGTAVGHGTPSTLPAAQSVECAAVPLSSAGEGAAAGVKLEFNLNEGKPVSR”, which “soluble on expression in E. coli” value is on record?
**A.** soluble

**Q.** Which “soluble on expression in E. coli” value does the source give for “MAHHHHHHMTLETTPAPTFSSKKELYDWLVKQVEALVHDMSKRFTPQANLVIGLSNTAALCFYELNRFCNPEAALEKLRVNWFGFYLFQAPGLLALGPFQGRPACTEIRVGKGVCGTVAESGESMVVQSVHEFPGHIACDSASKSEIAVPVLIENGSVVAVIDVDSTELGHFSEEDREGLERMAAVLAQHLDFPMARALAVNPALGLPGYSALAGGEKALQPHGDAEAVPQATPVTTTTTTPATVTAVTRIPFFKVEVKQPDVTTKCVGGWQFTRTNLDRIMTQDETKQLQDSLGISALPEIAFQGKTLSVSPESDREHPWLHFSVEALMCSAAEYYQTEEFKTLVNPQLRIPVSAGWESFHFEKYDPKVDWAWRNNFCGLVPDRGRLVERPRDAADAPGINWDILKDTSLLILFYGDFDMMEDDLRDHGMVTSSVKYRVMSSAFFVLFRHFVRVDNHEIWMREVRVFHEFGKTRTPSGVPHIVFLEQLRHVRIAEPVEGVDWKSMSPDAISAKATVLLSREWMLEKVATA” here?
**A.** not soluble

**Q.** Which “soluble on expression in E. coli” value does the source give for “MAHHHHHHMTTAGQSDAFTRVSLHSVTALGKCPAPFSDPIAVKVVLEVFGCPPKHSIDVKFTWKPIWDFPVDQVLDEFEVGPLATVGKHELVLHSDPPDVAKIPDPTGPTALTIAFTYRGKQFLHIGYNAVVLCEGEMPDVFEDAAMLSRQLTQCFKKETTIAWDEDHEDVEEKTVINGKDNDISDVKEKDHNGHAAYDDEAKVPEGVSPTKKKARCEGSLSQ” here?
**A.** soluble

**Q.** Which “soluble on expression in E. coli” value does the source give for “MAHHHHHHMVLHIYHAAVGEKEFQFSTNINKLTQETYELDVNEAIEEVSSTILEQLTGEDALCCECKAAPATRLIHHTMLFAETFPPRVEDLPQPVCNSANCEAVAKSRYLMDMEDATTAQGMPSPNGCFHCHKGARGAATVPLQRCSRCKVAKYCSVECQKADWKVHKQVCAPG” here?
**A.** not soluble

**Q.** Which “soluble on expression in E. coli” value does the source give for “MAHHHHHHMVLLPFPPSFYVTTGTTIPFISSPPVAQSGNIYASNESKRLRVDNFFMGFQYSFVADGKLGRGFVFESIEPITTTTASGNNNNNNNNNNNNNNSSEKKSGRGGEERISCRSFALNRGLTGFGVPDEFVRHAESSLVRGVKVWRYTGYSRSGVGPLQEVDYFIRNGTFHAVPWRVQIRRRQTALKELTGSPMTLPNWRYFGGLFFDEVAVPEGPYEDKLERLMQDTTVTLDFYNFVPAEPHPSVFSVPDNCKEVSARFTGNDVDISLAQRFLVDLSLYTPVGREMLREELNSA” here?
**A.** not soluble
